# Biological target: full-length, extra-membrane clientized (Thr1273Glu) S tail, biotinylated (BLI) (SARS-CoV-2)
# Assay: BLI
binder,measurement,value
"S. pombe αWD40 domain (N-terminal WD40 domain of α-COPI), wild type (domain or fragment) MEMLTKFESRSSRAKGVAFHPTQPWILTSLHNGRIQLWDYRMGTLLDRFDGHDGPVRGIAFHPTQPLFVSGGDDYKVNVWNYKSRKLLFSLCGHMDYVRVCTFHHEYPWILSCSDDQTIRIWNWQSRNCIAILTGHSHYVMCAAFHPSEDLIVSASLDQTVRVWDISGLRMKNAAPVSMSLEDQLAQAHNSISNDLFGSTDAIVKFVLEGHDRGVNWCAFHPTLPLILSAGDDRLVKLWRMTASKAWEVDTCRGHFNNVSCCLFHPHQELILSASEDKTIRVWDLNRRTAVQTFRRDNDRFWFITVHPKLNLFAAAHDSGVMVFKLE",fold slower binding rate than the wild-type S tail,2.4 fold
same,fold tighter binding than the wild-type S tail,11 fold
